From paper PMC10693595 (2023)

B1: human VZV neutralizing mAb 93k [modified: Cy5-conjugated] [human] / VZV glycoprotein B, wild type [varicella-zoster virus (VZV)] (parent complex)
chain 1: QVQLVQSGAEVKKPGSSVKVSCKASGGTFSNFAISWVRQAPGQGLEWMGRIMPLFVTSTYAQKFQGRVTISADASTSTAYMELSSLRSDDTAMYYCARDITAPGAAPTPLNFYGMDVWGQGTTVTVSS
chain 2: DIQMTQSPSTLSASVGDRVTITCRASQTISTWLAWYQQTPRKAPKLMIYKASILENGVPSRFSGSGSGTEFTLTISSLQPEDFATYYCQQYKSYPWTFGQGTKVEI
chain 3: VSPSSFYESLQVEPTQSEDITRSAHLGDGDEIREAIHKSQDAETKPTFYVCPPPTGSTIVRLEPTRTCPDYHLGKNFTEGIAVVYKENIAAYKFKATVYYKDVIVSTAWAGSSYTQITNRYADRVPIPVSEITDTIDKFGKCSSKATYVRNNHKVEAFNEDKNPQDMPLIASKYNSVGSKAWHTTNDTYMVAGTPGTYRTGTSVNCIIEEVEARSIFPYDSFGLSTGDIIYMSPFFGLRDGAYREHSNYAMDRFHQFEGYRQRDLDTRALLEPAARNFLVTPHLTVGWNWKPKRTEVCSLVKWREVEDVVRDEYAHNFRFTMKTLSTTFISETNEFNLNQIHLSQCVKEEARAIINRIYTTRYNSSHVRTGDIQTYLARGGFVVVFQPLLSNSLARLYLQELVRENTNHSPQKHPTRNTRSRRSVPVELRANRTITTTSSVEFAMLQFTYDHIQEHVNEMLARISSSWCQLQNRERALWSGLFPINPSALASTILDQRVKARILGDVISVSNCPELGSDTRIILQNSMRVSGSTTRCYSRPLISIVSLNGSGTVEGQLGTDNELIMSRDLLEPCVANHKRYFLFGHHYVYYEDYRYVREIAVHDVGMISTYVDLNLTLLKDREFMPLQVYTRDELRDTGLLDYSEIQRRNQMHSLRFYDIDKVVQYDSGTAIMQGMAQFFQGLGTAGQAVGHVVLGATGALLSTVHGFTTFLSNPFGALAVGLLVLAGLVAAFFAYRYVLKLKTSPMKALYPLTTKGLKQLPEGMDPFAEKPNATDTPIEEIGDSQNTEPSVNSGFDPDKFREAQEMIKYMTLVSAAERQESKARKKNKTSALLTSRLTGLALRNRRGYSRVRTENVTGV

Variants of: B1
Assay: flow cytometry on cells; CHO-DSP1 cells transfected, permeabilized, immunostained with Cy5-conjugated mAb 93k; n = 2; parent: 100; read off a plot

chain 3 H456A and chain 3 V457A are the same in percent of parent: about 98 % WT for the first, about 98 % WT for the second.

chain 3 E455A gave a percent of parent of about 110 % WT.

Variants of: B1
Assay: as above
Remark: another data set of the same source

chain 3 H456A and chain 3 V457A are the same in screen value: about 120 % WT for the first, about 120 % WT for the second.

chain 3 E455A was tested, and the screen value was about 120 % WT.

Variants of: B1
Assay: flow cytometry on cells; CHO-DSP1 cells transfected, permeabilized, immunostained with Cy5-conjugated mAb 93k; n = 3; parent: 100; read off a plot

Going from chain 3 H456P to chain 3 V457P, the screen value falls from about 120 % WT to about 48 % WT.

For chain 3 E455P, the screen value was about 110 % WT.

Variants of: B1
Assay: as above
Remark: another data set of the same source

Compared with chain 3 H456P, chain 3 V457P is lower in percent of parent: about 95 % WT for the first, about 18 % WT for the second.

chain 3 E455P was tested, and the percent of parent was about 70 % WT.
